Test: yeast display, Sf9 membrane polyspecificity reagent, FACS + sequencing; frameworks hold sequencing errors
In short: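 Galactose induction of a Saccharomyces cerevisiae BJ5465 synthetic nanobody display library ran 36–48 hours. The cells were then stained for 1 hour at 4 °C with 10% biotinylated, detergent-solubilized Sf9 membrane reagent, pulled down on streptavidin microbeads and FACS-sorted into low and high (top ~1%) gates on expression and reagent-binding fluorescence. Labels for polyreactivity follow the gate of origin.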

| Sequence | polyreactivity (PSR sort gate) |
| --- | --- |
| QVQLVESGGGLVQAGGSLRLSCAACGRTFYQNAMGWYRQAPGKERELVAAISRSGGSTYYADSVKGRFTISLYNAKNTVYLQMNSLKPEDTAVYFCAADPRSYGGGYDYWGQGTQVTVSS | high polyreactivity |
| QVQLVESGGGLVQAGGSLRLSCAASGQIFYRYAMGWDRQAPGKERELVAAISSGGSTYYADSVKGRFTISRDNAKNTVYLQMNSLKPEDTAVYYCNTGYWYVSLGSYDYYGEYDYWGQGTQVTVSS | high polyreactivity |
| QVQLVESGGGLVQAGGSLRLSCAASGRTFDTYAMGWYRQAPGKERELVAAITRRTYYADSVKGRFTISRDNAKNTVYLQMNSLKPEDTAVYYCAVRFLRKWTSSRHYGYWGQGTQVTVSS | high polyreactivity |
| QVQLQESGGGLVQAGGSLRLSCAASGNIFDADIMGWYRQAPGKERELVASITDGGSTNYADSVKGRFTISRDNAKNSVYLQMNSLLPEDTAVYYCAAIAYPDIPTYFDYDSDYFYWGQGTQVTVSS | high polyreactivity |
| QVQLEESGGGLVQAGGSLRLSCAASGFTFVYYAMGRYRQATGKERELVAAISWRDGDTYYADSVKGRFTISRDNAKNTVYVQMNSLKPEDTAVYYCAADYSYFKDDDWGQGTQVTVSS | low polyreactivity |
| QVQLVESGGGLVQEGGSLRLSCAASGRTSNINAMGWYRQAPGKERELVAAINSDGSTYYAYSVKGRFTISRDNAKNTVYLQMNSLKPEDTAVYYCAAVSLFRDSQFDYWGQGTQVTVSS | low polyreactivity |
| QVQLVDSGGGLVQAGGSLRLICAASGRTFGTNALGWYRQAPGKEREFVAAIRWSDGSTYYADSVKGRFTISRDNAKNTVYLQMNSLKPEDTAVYYCAKEYYIVDVIHDYALYLYDYWGQGTQVTVSS | low polyreactivity |
| QVQLVESGGGLVQAGGSLRLSCAASGRTFSGNAMGWYRQAPGKEREFVAVISSNGGSTYYADSVKGRFTISRDNAKNTVYLQMNSLKPEDTAVYYCNARYWRGWGGRVSKYGYWGQGTQVTVSS | high polyreactivity |
| QVQLVESRGGLVQAGGSLRLSCAASGYIFRSNAMGWYRQAPGKERELVAAITRSGGSTYYADSVKGRFTISRDNAKITVFLQMNSLKPEDTAVYYCAVLPRGSNGMDYWGQGTQVTVSS | low polyreactivity |
| QVQLVESGGGLLQAGGSLRLSCAASGSTFSSYAMGWYRPAPGKERELVAAITSSGGSTYYADSVKGRFTISRDNAKNTVYLKLNSLKPEDTAVYYCAAADVIFWLYYYWGQGTQVTVSS | low polyreactivity |
| QVQLVESGGCLVQAGGSLRLSCAASGYIFYGYAMGWYRQAPGKERELVAAITVRGGSTYYADSVKGRFRISRDNAKNTVYLQMNSLKPQDTAVYYCAAAPQFTFGVGYWGQGTQVTVSS | low polyreactivity |
| QVQLVESGVGLVQAGGSLRLRCAASGFTFRYYAMGWNRQAPGKERELVATMSSAGTTNYADSVKGRFTISRDNAKNTVYLPMNSLKPEDTAVYYCAKDLYYRHWRGGFWGQGTQVTVSS | low polyreactivity |
| QVQLVESGGGLDQAVGSLRLSSAASGTTFDKNDMGLYRQAPAKERELVAAISGGSTNYADSVKGRFTISRDNAKNTVYLQMNSLKPEDTAVYYCAARPHAHSDYWGQGTQVTVSS | low polyreactivity |
| QVQLVESGGGLVQAGGSLRLSCAASGRIFSYNAMGWYRQAPGKERELVAPINTSGGSTYYADSVKGRFTISRDNAKNTVYLHMNSLKPEDTAVYYCNATLPVYWPYYYYQGGDDDWGQGTQVTVSS | low polyreactivity |
| QVQLVESGGGLVQAGGSLRLSCAASGFTFNFYAMGWYRQAPGKERELVASITSSGARTYYADSVKGRFTISRDNAKNTVYLQMNSLKPEDTAVYYCAARVYRYSASRAYDYWGQGTQVTVSS | high polyreactivity |
| QVQLVESGGGLVQAGGSLRLSCAASGSTFPRNAMGWYRQAPGKERELVAAISYSGGRTYYADSVKGRFTISRDNAKNTVYLQMNSLKPEDTAVYYCAAQPYSHVRGKSYGYWGQGTQVTVSS | high polyreactivity |
| QVQLVESGGGLVQAGGSLRLSCAASGSIFYENAMGWYRQAPGKERELVAAIRDSGGSTYYADSVKGRFTISRDNAKNTVYLQMNSLKPEDTAVYYCNAVPVYYDYDYWGQGTQVTVSS | low polyreactivity |
